Data published in US20140349928A1 (MEDERIS DIABETES, published 2014).
Non-standard residues stand in square brackets, D forms with d. No end group written: not given here. Aib = CC(C)(N)C(=O)O

Target: GLP-1 receptor
Assay: cell-based or functional assay

B1: EU-A391 (peptide)
peptide: H[Aib]QGT[Me‑Phe]TSDYSKYLD[Aib]K-NH2
modifications: not fully specified (residue 17); also: 1-dodecyl beta-D-glucuronyl surfactant on a linker residue
EC50, cAMP generated in cells (GLP-1 cellular assay): 420 nM
